For the data set, the target named is T1, DNA polymerase kappa core (hpol κ19-536) (Homo sapiens, UniProt Q9UBT6 19-536).
T1 sequence: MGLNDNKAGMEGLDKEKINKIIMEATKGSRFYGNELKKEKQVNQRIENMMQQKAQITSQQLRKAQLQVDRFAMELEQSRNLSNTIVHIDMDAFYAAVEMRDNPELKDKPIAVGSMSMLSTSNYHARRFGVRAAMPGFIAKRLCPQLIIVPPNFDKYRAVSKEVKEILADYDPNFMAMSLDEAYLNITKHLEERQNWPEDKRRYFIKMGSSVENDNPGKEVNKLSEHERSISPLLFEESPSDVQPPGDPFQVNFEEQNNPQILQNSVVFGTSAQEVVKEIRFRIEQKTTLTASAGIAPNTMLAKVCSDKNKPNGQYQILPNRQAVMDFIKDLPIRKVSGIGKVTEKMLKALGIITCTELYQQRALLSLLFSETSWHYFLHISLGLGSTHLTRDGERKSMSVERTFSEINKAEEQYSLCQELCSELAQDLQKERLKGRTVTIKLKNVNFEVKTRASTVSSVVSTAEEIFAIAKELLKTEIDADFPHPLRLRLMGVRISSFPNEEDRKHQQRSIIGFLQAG
The data set can be described thus: fluorescence polarization. A general note: Fluorescence polarisation rises when a labelled molecule tumbles more slowly, as on binding a larger partner.

B1: 11/28-mer G4 DNA (mixed)
DNA 1: ATCCTCCCCTA
DNA 2: TGGGTGGGTAGGGTGGGTAGGGGAGGAT
On to B1, for which the Kd is 15 nM.

B2: 11/28-mer non-G4 DNA (mixed)
DNA 1: ATCCTCCCCTA
DNA 2: TATGTGACTATGCTGGGTAGGGGAGGAT
For the molecule B2, the Kd amounted to 86 nM.

A word on the Kd: it is the free concentration of one partner at which half of the binding sites on the other are occupied at equilibrium, for simple one-to-one binding. Read a low Kd as tighter binding.

Source of the values: publication PMC5113810.
